Reference: FireProtDB (doi:10.1038/nsb1296-1019)

Details: Equus caballus, pH 2, Sodium phosphate 10 mM, KCl 1 M; for denaturant midpoint (higher = more stable) / unfolding free energy: 10 °C, Acid
[1] = Thermal, CD, transition: 3, structure 1AKK

Chain of Cytochrome c L95V, P00004 (P00004 whole entry L95V): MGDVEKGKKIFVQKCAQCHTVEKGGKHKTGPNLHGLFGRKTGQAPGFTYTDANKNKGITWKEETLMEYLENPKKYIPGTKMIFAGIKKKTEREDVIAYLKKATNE
Chain of Cytochrome c L95A, P00004 (P00004 whole entry L95A): as the sequence (P00004 whole entry L95V) above, with V95A counted along it
Chain of Cytochrome c wild type, P00004 (P00004 whole entry): as the sequence (P00004 whole entry L95V) above, with V95L counted along it

Substance	denaturant midpoint (higher = more stable) (CD, structure 1AKK) [M]	unfolding free energy (CD, structure 1AKK) [kcal/mol]	denaturant midpoint (higher = more stable) (Fluorescence, structure 1AKK) [M]	unfolding free energy (Fluorescence, structure 1AKK) [kcal/mol]	ddG of mutation (higher = less stable) (83 °C, Thermal, CD, transition: 3, structure 1AKK) [kcal/mol]	Tm [1] [°C]	change of melting temperature, mutant - wild type (higher = more stable) [1] [°C]	unfolding enthalpy (van 't Hoff) [1] [kcal/mol]	denaturant midpoint (higher = more stable) (CD) [M]	unfolding free energy (CD) [kcal/mol]	denaturant midpoint (higher = more stable) (Fluorescence) [M]	unfolding free energy (Fluorescence) [kcal/mol]	Tm (Thermal, CD, transition: 3) [°C]	unfolding enthalpy (van 't Hoff) (Thermal, CD, transition: 3) [kcal/mol]
Cytochrome c L95V, P00004	0.1	2.59	0.08	2.7	1.2	79	-4	104						
Cytochrome c L95A, P00004	0.83	0.1	0.3	0.74										
Cytochrome c wild type, P00004									0.03	4.14	0.03	3.54	83	107
